From US20100216161
Where two headings read alike, the source gives them in different places.

T1: FITC-NS5AB-1 peptide substrate FITC-Ahx-EDVV-(alpha)Abu-CSMSYTKK-NH2
T1 chain: XEDVVXCSMSYTKK

T2: NS5AB peptide substrate NH2-EDVV-(alpha)Abu-CSMSY-COOH
T2 chain: EDVVXCSMSY

T3: NS5AB-EDANS peptide substrate NH2-EDVV-(alpha)Abu-CSMSYT-Asp(EDANS)-KKK-COOH
T3 chain: EDVVXCSMSYTDKKK

B1: NS3•4A protein with an N-terminal histidine tag (protein)
chain: MSHHHHHHAMAPITAYAQQTRGLLGCIITSLTGRDKNQVEGEVQIVSTATQTFLATCINGVCWTVYHGAGTRTIASPKGPVIQMYTNVDQDLVGWPAPQGSRSLTPCTCGSSDLYLVTRHADVIPVRRRGDSRGSLLSPRPISYLKGSSGGPLLCPAGHAVGLFRAAVCTRGVTKAVDFIPVENLETTMRSPVFTDNSSPPAVPQSFQVAHLHAPTGSGKSTKVPAAYAAQGYKVLVLNPSVAATLGFGAYMSKAHGVDPNIRTGVRTITTGSPITYSTYGKFLADGGCSGGAYDIIICDECHSTDATSILGIGTVLDQAETAGARLVVLATATPPGSVTVSHPNIEEVALSTTGEIPFYGKAIPLEVIKGGRHLIFCHSKKKCDELAAKLVALGINAVAYYRGLDVSVIPTNGDVVVVSTDALMTGFTGDFDSVIDCNTCVTQTVDFSLDPTFTIETTTLPQDAVSRTQRRGRTGRGKPGIYRFVAPGERPSGMFDSSVLCECYDAGCAWYELMPAETTVRLRAYMNTPGLPVCQDHLEFWEGVFTGLTHIDAHFLSQTKQSGENFPYLVAYQATVCARAQAPPPSWDQMWKCLIRLKPTLHGPTPLLYRLGAVQNEVTLTHPITKYIMTCMSADLEVVTSTWVLVGGVLAALAAYCLSTGCVVIVGRIVLSGKPAIIPDREVLYQEFDEMEEC

Assays:
[1] = tested on: NS5AB peptide substrate NH2-EDVV-(alpha)Abu-CSMSY-COOH
[2] = target: T1, FITC-NS5AB-1 peptide substrate …
[3] = target: T2, NS5AB peptide substrate …
[4] = target: T3, NS5AB-EDANS peptide substrate …

Molecule	Km [1]	kcat/Km [1]	Km [2]	kcat/Km [2]	Km [3]	kcat/Km [3]	Km [4]	kcat/Km [4]
HCV NS3 protease domain (residues Ala1-Ser181 of HCV NS3 protease, C-terminal hexa-histidine tag)	25 µM	30000 M⁻¹ s⁻¹	–	–	–	–	–	–
B1	–	–	15 µM	1200 M⁻¹ s⁻¹	30 µM	7900 M⁻¹ s⁻¹	56 µM	1400 M⁻¹ s⁻¹
